Where no end group is shown, it is not given here. The star is where a group is joined. Biotin = O=C1N[C@H]2[C@H](CS[C@H]2CCCCC(=O)*)N1; Ahx = NCCCCCC(=O)O
B1: Nedd PY motif peptide, Biotin-Ahx-IPGTPPPNYDSLRL-CONH2 (peptide)
peptide: {Biotin-Ahx}-IPGTPPPNYDSLRL-NH2
SMILES: CC[C@H](C)[C@H](NC(=O)CCCCCNC(=O)CCCC[C@@H]1SC[C@@H]2NC(=O)N[C@@H]21)C(=O)N1CCC[C@H]1C(=O)NCC(=O)N[C@H](C(=O)N1CCC[C@H]1C(=O)N1CCC[C@H]1C(=O)N1CCC[C@H]1C(=O)N[C@@H](CC(N)=O)C(=O)N[C@@H](Cc1ccc(O)cc1)C(=O)N[C@@H](CC(=O)O)C(=O)N[C@@H](CO)C(=O)N[C@@H](CC(C)C)C(=O)N[C@@H](CCCNC(=N)N)C(=O)N[C@@H](CC(C)C)C(N)=O)[C@@H](C)O
B2: Mutant Nedd PY motif peptide, Biotin-Ahx-IPGTPPPNHDSLRL-CONH2 (peptide)
peptide: {Biotin-Ahx}-IPGTPPPNHDSLRL-NH2
SMILES: CC[C@H](C)[C@H](NC(=O)CCCCCNC(=O)CCCC[C@@H]1SC[C@@H]2NC(=O)N[C@@H]21)C(=O)N1CCC[C@H]1C(=O)NCC(=O)N[C@H](C(=O)N1CCC[C@H]1C(=O)N1CCC[C@H]1C(=O)N1CCC[C@H]1C(=O)N[C@@H](CC(N)=O)C(=O)N[C@@H](Cc1c[nH]cn1)C(=O)N[C@@H](CC(=O)O)C(=O)N[C@@H](CO)C(=O)N[C@@H](CC(C)C)C(=O)N[C@@H](CCCNC(=N)N)C(=O)N[C@@H](CC(C)C)C(N)=O)[C@@H](C)O
B3: Smad3 PY motif peptide AGLTPPPGYLSEDG (peptide)
peptide: AGLTPPPGYLSEDG
modifications: not fully specified (N-terminus); also: biotin with C6 linker, end not given here
notes: also called Smad 3 peptide
B4: Smad1 PY motif peptide PADTPPPAYLPPED (peptide)
peptide: {Biotin-Ahx}-PADTPPPAYLPPED-NH2
SMILES: CC(C)C[C@H](NC(=O)[C@H](Cc1ccc(O)cc1)NC(=O)[C@H](C)NC(=O)[C@@H]1CCCN1C(=O)[C@@H]1CCCN1C(=O)[C@@H]1CCCN1C(=O)[C@@H](NC(=O)[C@H](CC(=O)O)NC(=O)[C@H](C)NC(=O)[C@@H]1CCCN1C(=O)CCCCCNC(=O)CCCC[C@@H]1SC[C@@H]2NC(=O)N[C@@H]21)[C@@H](C)O)C(=O)N1CCC[C@H]1C(=O)N1CCC[C@H]1C(=O)N[C@@H](CCC(=O)O)C(=O)N[C@@H](CC(=O)O)C(N)=O
notes: also called Smad 1 PY peptide; Biotin-Ahx-PADTPPPAYLPPED-CONH2
B5: Smad5 PY motif peptide PADTPPPAYMPPDD (peptide)
peptide: PADTPPPAYMPPDD
modifications: not fully specified (N-terminus); also: biotin with C6 linker, end not given here
notes: also called Smad 5 peptide
B6: WBP1 PY motif peptide, Biotin-Ahx-HPGTPPPPYTVGPG-CONH2 (peptide)
peptide: {Biotin-Ahx}-HPGTPPPPYTVGPG-NH2
SMILES: CC(C)[C@H](NC(=O)[C@@H](NC(=O)[C@H](Cc1ccc(O)cc1)NC(=O)[C@@H]1CCCN1C(=O)[C@@H]1CCCN1C(=O)[C@@H]1CCCN1C(=O)[C@@H]1CCCN1C(=O)[C@@H](NC(=O)CNC(=O)[C@@H]1CCCN1C(=O)[C@H](Cc1c[nH]cn1)NC(=O)CCCCCNC(=O)CCCC[C@@H]1SC[C@@H]2NC(=O)N[C@@H]21)[C@@H](C)O)[C@@H](C)O)C(=O)NCC(=O)N1CCC[C@H]1C(=O)NCC(N)=O
notes: also called WBP1 peptide
B7: Smad6 PY motif peptide GPESPPPPYSRLSP (peptide)
peptide: GPESPPPPYSRLSP
modifications: not fully specified (N-terminus); also: biotin with C6 linker, end not given here
notes: also called Smad 6 peptide
B8: Smad2 PY motif peptide IPETPPPGYISEDG (peptide)
peptide: IPETPPPGYISEDG
modifications: not fully specified (N-terminus); also: biotin with C6 linker, end not given here
notes: also called Smad 2 peptide
B9: Smad7 PY motif peptide ELESPPPPYSRYPM (peptide)
peptide: ELESPPPPYSRYPM
modifications: not fully specified (N-terminus); also: biotin with C6 linker, end not given here
notes: also called Smad 7 peptide

Legend:
GST-WWP1.3 [1] = target: T1, GST-WWP1.3; experiment: TRF (DELFIA) plate assay, GST-WW domain coated, biotinylated peptide in solution
T1 construct: Coated on polystyrene plates; also called WWP1 WW domain 3; not shown: glutathione S-transferase (GST) fusion partner
Method: (§1) Each domain was individually expressed as a GST fusion protein. A TRF binding assay was used to evaluate interactions of PY motif peptides with these domains or GST alone. WW domains were bound to a 96-well polystyrene assay plate (Costar) overnight at 4° C. in a 200 mM carbonate buffer (Pierce, Rockford, Ill.) at different concentrations (0, 1, 3, 10 μg/mL). Unbound WW domain was washed away with distilled, deionized water and the plates were blocked with 1% BSA/carbonate buffer for 2 hours at room temperature. The plates were then washed with Tris/Tween buffer: 50 mM Tris pH 7.5, 100 mM NaCl, 1 mM EDTA, 1% BSA, 1 mM DTT, 0.1% Tween20, protease inhibitor cocktail (Boehringer-Mannheim).
(§2) These biotinylated peptides were solvated in Tris/Tween buffer and added to the assay plates (30 μM). The plates were incubated at 4° C. for varying amounts of capture time. The plates were then washed with PBS/0.1% Triton X100 and probed for 1 hour at room temperature with 1 μg/mL Europium-labeled streptavidin (DELFIA; Wallac Oy, Turku, Finland) in DELFIA Assay Buffer/0.1% Triton X100. The unbound Europium-labeled streptavidin was washed with PBS/0.1% Triton X100. Europium was released for time-resolved fluorescence measurements with the DELFIA Enhancement Buffer. Measurements were made on either the DELFIA 1234 or Victor fluorometers.

GST-WWP1.2 [2] = target: T2, GST-WWP1.2; experiment: as above
T2 construct: Coated on polystyrene plates; also called second WW domain of WWP1; WWP1 WW domain 2; not shown: glutathione S-transferase (GST) fusion partner
Method: as §1, §2

GST-WWP1.4 [3] = target: T3, GST-WWP1.4; experiment: as above
T3 construct: Coated on polystyrene plates; also called WWP1 WW domain 4; not shown: glutathione S-transferase (GST) fusion partner
Method: as §1, §2

GST-WWP1.1 [4] = target: T4, GST-WWP1.1; experiment: as above
T4 construct: also called WWP1 WW domain 1; not shown: glutathione S-transferase (GST) fusion partner
Method: as §1, §2

GST alone = target: T5, GST alone (UniProt P08515 1-218 = GST); experiment: TRF (DELFIA) plate assay, GST coated, biotinylated peptide in solution
T5 construct: Control coated on plates in the TRF assay
Method: as §1, §2

GST-WWP1.3 [5] = target: T1, GST-WWP1.3; experiment: TRF (DELFIA) plate assay, GST-WW domain coated at 30 µg/mL, titrated with biotinylated peptide
GST-WWP1.2 [6] = target: T2, GST-WWP1.2; experiment: as above
GST-WWP1.4 [7] = target: T3, GST-WWP1.4; experiment: as above
GST-WWP1.1 [8] = target: T4, GST-WWP1.1; experiment: as above
GST-WWP1.3 [9] = target: T1, GST-WWP1.3; experiment: TRF (DELFIA) plate assay, GST-WW domain coated at 0-10 µg/mL, biotinylated peptide 30 µM
Method: as §1, §2

GST-WWP1.2 [10] = target: T2, GST-WWP1.2; experiment: as above
Method: as §1, §2

GST-WWP1.4 [11] = target: T3, GST-WWP1.4; experiment: as above
Method: as §1, §2

GST-WWP1.2 [12] = target: T2, GST-WWP1.2; experiment: TRF (DELFIA) plate assay, peptide titration of coated GST-WW domain, GST background subtracted; nonlinear least squares fit and Scatchard analysis
Method: FIGS. 8A-8B are graphs illustrating the binding of increasing concentrations of a Smad7 PY motif peptide to WWP1 WW domain peptides. In FIG. 8A, binding to four GST fusion peptides (GST-WWP1.1, GST-WWP1.2, GST-WWP1.3 and GST-WWP1.4) is shown, as well as binding to RSP5.2 WW domain. WW domain peptides were coated on polystyrene plates at the indicated receptor coating concentrations, and blocked with BSA. Biotinylated PY motif peptide was then added at the indicated concentrations. Binding was assessed using a time-resolved fluorescence assay and is shown as cps. FIG. 8B presents a Scatchard analysis of the Smad7 PY motif to WWP1.2 and WWP1.4, as indicated.
A detailed evaluation of the interactions of Smad 7 with the WWP1 WW domains and the second WW domain from RSP5 was undertaken. GST was used to correct for nonspecific background interactions. The peptide titration of the WW domains was evaluated by a nonlinear, least squares fit of the data and Scatchard analysis (FIGS. 8A-8B).

T1 sequence (chain, as listed by the source): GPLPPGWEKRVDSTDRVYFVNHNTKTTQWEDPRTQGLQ
T5 sequence (P08515 whole entry): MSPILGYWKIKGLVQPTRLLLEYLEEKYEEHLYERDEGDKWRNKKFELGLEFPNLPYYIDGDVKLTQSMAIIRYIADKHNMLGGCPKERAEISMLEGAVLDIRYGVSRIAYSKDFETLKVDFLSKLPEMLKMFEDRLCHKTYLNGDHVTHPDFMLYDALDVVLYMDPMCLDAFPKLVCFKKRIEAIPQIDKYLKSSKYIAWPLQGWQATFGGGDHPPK
T2 sequence (chain, as listed by the source): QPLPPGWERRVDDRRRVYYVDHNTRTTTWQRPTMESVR
T4 sequence (chain, as listed by the source): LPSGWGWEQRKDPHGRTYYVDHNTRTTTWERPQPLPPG

Binder | binding result (GST alone) | binding result (GST-WWP1.3 [5]) | binding result (GST-WWP1.2 [6]) | binding result (GST-WWP1.4 [7]) | binding result (GST-WWP1.1 [8]) | further results
B1 | no binding (tested: 30 µM peptide) | – | – | – | – | binding result (GST-WWP1.3 [1]): no binding (tested: 30 µM peptide); binding result (GST-WWP1.2 [2]): no binding (tested: 30 µM peptide); binding result (GST-WWP1.4 [3]): no binding (tested: 30 µM peptide); binding result (GST-WWP1.1 [4]): no binding (tested: 30 µM peptide)
B2 | no binding (tested: 30 µM peptide) | – | – | – | – | binding result (GST-WWP1.3 [1]): no binding (tested: 30 µM peptide); binding result (GST-WWP1.2 [2]): no binding (tested: 30 µM peptide); binding result (GST-WWP1.4 [3]): no binding (tested: 30 µM peptide); binding result (GST-WWP1.1 [4]): no binding (tested: 30 µM peptide)
B3 | – | no binding | no binding | no binding | no binding | –
B4 | – | no binding | no binding | no binding | no binding | –
B5 | – | binds | binds | binds | – | –
B6 | no binding (tested: 30 µM peptide) | – | – | – | – | binding result (GST-WWP1.3 [9]): binds; binding result (GST-WWP1.2 [10]): binds; binding result (GST-WWP1.4 [11]): binds
B7 | – | binds | binds | binds | – | –
B8 | – | no binding | no binding | no binding | no binding | –
B9 | – | – | – | – | – | Kd (GST-WWP1.2 [12]): 2400 nM

Source: patent publication US20030119072A1 (SIGNAL PHARMACEUTICALS, published 2003)
